Values belong to the molecule of their own block, whether it stands above or below them.
Legend:
[1] = target: T1, pig-type ligand peptide (1-60) (SEQ ID NO: 31) (Sus scrofa, UniProt Q9TT95); experiment: Competitive EIA of monoclonal antibodies against pig-type ligand peptide; assay type: binding; conditions: B/B0 in the presence of 100 nM immunogen; HRP-labeled SEQ ID NO: 44
T1 construct: made in house
T1 sequence (Q9TT95 23-82): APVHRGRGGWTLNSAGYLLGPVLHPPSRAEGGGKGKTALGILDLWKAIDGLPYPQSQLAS

[2] = target: T2, rat-type galanin (SEQ ID NO: 61) (Rattus norvegicus, UniProt P10683); experiment: Competitive EIA of monoclonal antibodies against rat galanin; assay type: binding; conditions: B/B0 in the presence of 100 nM immunogen; HRP-labeled SEQ ID NO: 44
T2 sequence (P10683 33-61 limits assumed): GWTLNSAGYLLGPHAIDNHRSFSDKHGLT

B1: 1 (protein)
chain: MELAPVNLSEGNGSDPEPPAEPRPLFGIGVENFITLVVFGLIFAMGVLGNSLVITVLARSKPGKPRSTTNLFILNLSIADLAYLLFCIPFQATVYALPTWVLGAFICKFIHYFFTVSMLVSIFTLAAMSVDRYVAIVHSRRSSSLRVSRNALLGVGFIWALSIAMASPVAYYQRLFHRDSNQTFCWEHWPNQLHKKAYVVCTFVFGYLLPLLLICFCYAKVLNHLHKKLKNMSKKSEASKKKTAQTVLVVVVVFGISWLPHHVIHLWAEFGAFPLTPASFFFRITAHCLAYSNSSVNPIIYAFLSENFRKAYKQVFKCRVCNESPHGDAKEKNRIDTPPSTNCTHV
modifications: Rat
Reactivity Pig Ligand (SEQ ID NO: 31) [1]: − (0.80 ≦ (B/B0))
Reactivity Rat Galanin (SEQ ID NO: 61) [2]: − (0.80 ≦ (B/B0))

B2: 4 (protein)
chain: B1 chain
modifications: Rat
Reactivity Pig Ligand (SEQ ID NO: 31) [1]: + ((B/B0) < 0.50)
Reactivity Rat Galanin (SEQ ID NO: 61) [2]: − (0.80 ≦ (B/B0))

B3: 3 (protein)
chain: MADIQNISLDSPGSVGAVAVPVIFALIFLLGMVGNGLVLAVLLQPGPSAWQEPSSTTDLFILNLAVADLCFILCCVPFQAAIYTLDAWLFGAFVCKTVHLLIYLTMYASSFTLAAVSLDRYLAVRHPLRSRALRTPRNARAAVGLVWLLAALFSAPYLSYYGTVRYGALELCVPAWEDARRRALDVATFAAGYLLPVAVVSLAYGRTLCFLWAAVGPAGAAAAEARRRATGRAGRAMLAVAALYALCWGPHHALILCFWYGRFAFSPATYACRLASHCLAYANSCLNPLVYSLASRHFRARFRRLWPCGRRRHRHHHRAHRALRRVQPASSGPAGYPGDARPRGWSMEPRGDALRGGGETRLTLSPRGPQ
modifications: Rat
Reactivity Pig Ligand (SEQ ID NO: 31) [1]: ± (0.50 ≦ (B/B0) < 0.80)
Reactivity Rat Galanin (SEQ ID NO: 61) [2]: − (0.80 ≦ (B/B0))

B5: 2 (protein)
chain: MNGSGSQGAENTSQEGGSGGWQPEAVLVPLFFALIFLVGTVGNALVLAVLLRGGQAVSTTNLFILNLGVADLCFILCCVPFQATIYTLDDWVFGSLLCKAVHFLIFLTMHASSFTLAAVSLDRYLAIRYPLHSRELRTPRNALAAIGLIWGLALLFSGPYLSYYRQSQLANLTVCHPAWSAPRRRAMDLCTFVFSYLLPVLVLSLTYARTLRYLWRTVDPVTAGSGSQRAKRKVTRMIIIVAVLFCLCWMPHHALILCVWFGRFPLTRATYALRILSHLVSYANSCVNPIVYALVSKHFRKGFRKICAGLLRPAPRRASGRVSILAPGNHSGSMLEQESTDLTQVSEAAGPLVPPPALPNCTASSRTLDPAC
modifications: Rat
Reactivity Pig Ligand (SEQ ID NO: 31) [1]: + ((B/B0) < 0.50)
Reactivity Rat Galanin (SEQ ID NO: 61) [2]: − (0.80 ≦ (B/B0))

B6: 5 (protein)
chain: B5 chain
modifications: Rat
Reactivity Pig Ligand (SEQ ID NO: 31) [1]: ± (0.50 ≦ (B/B0) < 0.80)
Reactivity Rat Galanin (SEQ ID NO: 61) [2]: − (0.80 ≦ (B/B0))

Next, values leading:

Reactivity Pig Ligand (SEQ ID NO: 31) [1]: + ((B/B0) < 0.50)
Reactivity Rat Galanin (SEQ ID NO: 61) [2]: − (0.80 ≦ (B/B0))
B4: 6 (protein)
chain: B3 chain
modifications: Rat

Reactivity Pig Ligand (SEQ ID NO: 31) [1]: − (0.80 ≦ (B/B0))
Reactivity Rat Galanin (SEQ ID NO: 61) [2]: − (0.80 ≦ (B/B0))
B7: 8 (protein)
chain: MPRGCALLLASLLLASALSATLGLGSPVKEKRGWTLNSAGYLLGPHAIDNHRSFHDKYGLAGKRELEPEDEARPGGFDRLQSEDKAIRTIMEFLAFLHLKEAGALGRLPGLPSAASSEDAGQS
modifications: Porcine

Source: patent US20040077531A1, “Use of galanin-like peptide” (priority 2001, published 2004)
